tested on: CC(C)(COP(=O)(O)OP(=O)(O)OC[C@H]1O[C@@H](n2cnc3c(N)ncnc32)[C@H](O)[C@@H]1OP(=O)(O)O)[C@@H](O)C(=O)NCCC(=O)NCCSC(=O)C[C@@](C)(O)CC(=O)O; test: purified protein; assay type: biochemical, Nakaseomyces glabratus; conditions: NADPH co-substrate, Tris-HCl; HMG-CoA 1-64 µM; MBP fusion

Substance	Km [µM]
CgHMGR (Rec-MBP-CgHMGR, catalytic domain of Candida glabrata HMGR) (Nakaseomyces glabratus CBS 138; E680Q)	8.31
CgHMGR (Rec-MBP-CgHMGR, catalytic domain of Candida glabrata HMGR) (Nakaseomyces glabratus CBS 138; E711Q)	18
CgHMGR (Rec-MBP-CgHMGR, catalytic domain of Candida glabrata HMGR) (Nakaseomyces glabratus CBS 138; D805A)	11.84

From publication PMC8531335, “Point mutations in Candida glabrata 3-hydroxy-3-methylglutaryl-coenzyme A reductase (CgHMGR) decrease enzymatic activity and substrate/inhibitor affinity” (Scientific Reports, 2021)
